# Laboratory results as given in the DeepSol protein solubility set.
# Test: soluble on expression in E. coli; label from the status in PepcDB or PDB records
row,Sequence,soluble on expression in E. coli
1,MSAEAVAAAPIAEEATPVVYYSIESNDRVVLKISEQAIKQSATLSNSITNLGYSAENAESMVPIPIEKVNGKTLKLVVEWCEHHKADPVPEAYPSGNTVLPVWDRKFVDIEHDALTDLVNASNFLEVMTLLTYCCKFIAGLAKGMSPEEMRVFFCIPTDEEDEKAERFGKEKTEASATSADTTA,not soluble
2,MPDSLKSSIGYSRRFRLFRRGEVTVLEVMAGQKAYPDTLRYLLVPEGRPQPSGFVGYTVIRTPVKRIAVFSTTHIGFLDMLGRSDGIIGVSRPEFVNTPAVRSRIRSGAIKAIGMPFSPDVEALLNLEPDLVIAPALPAARKTDYQALVQAGIPVLVVAEWLEPSPLGRAEWIKLFGALVGKEKLARERFAAIESSYLKIAALSRNLPNRPTVLTGLPVKDAWYVPTGGSYVAAMLRDAGASYHWRDLPGTGSVPLTIEAVWPVALEAEYWLNTGTVSTLDELLAVDSRFGQMRSVRERRVWNNNRLVNAAGGNAYWESGVVRPDLILKDLVMILHPGLLRAHGIGEGELTFFQEVKLEHHHHHH,not soluble
3,MNLGTLVSETRNPQTMDLDALPTPELVKRFNEQDTLVAEAVKATLPDVARAVDAAAAALKSGGRIIYMGAGTSGRLGVLDASECPPTFGVPHGLVVGLIAGGPGALLKAVEGAEDSQQAGEDDLVALNLQEQDLVVGLAASGRTPYVIGGLRYARQSGCTTVAVSCNPDSPIAREANIAISPVVGPEALTGSTRLKSGTAQKMVLNMISTGAMVKFGKVYQNLMVDMKATNVKLVDRACRMVVEATGIGREEAEALLKQTDFEVKPAILMALTGLDAAAAREKLAAHQGFLRAALEH,not soluble
4,MSLHYYLGIDCGGTFIKAAIFDQNGTLQSIARRNIPIISEKPGYAERDMDELWNLCAQVIQKTIRQSSILPQQIKAIGISAQGKGAFFLDKDNKPLGRAILSSDQRAYEIVQCWQKENILQKFYPITLQTLWMGHPVSILRWIKENEPSRYEQIHTILMSHDYLRFCLTEKLYCEETNISESNFYNMREGKYDIQLAKLFGITECIDKLPPIIKSNKIAGYVTSRAAEQSGLVEGIPVVGGLFDVVSTALCADLKDDQHLNVVLGTWSVVSGVTHYIDDNQTIPFVYGKYPEKNKFIIHEASPTSAGNLEWFVNQFNLPNYDDINHEIAKLKPASSSVLFAPFLYGSNAKLGMQAGFYGIQSHHTQIHLLQAIYEGVIFSLMSHLERMQVRFPNASTLRVTGGPAKSEVWMQMLADISGMRLEIPNIEETGCLGAALMAMQAESAVEISQILNIDRKIFLPDKNQYSKYQHKYHRYLKFIEALEGHHHHHH,soluble
5,MHNLANLYRTGWPGGVEKDTQKALDLYQKMIDLDVPQGFYDMGAMIGNRAGVKNPATDGLTFLDKAASLGNPPALTELGKFYIYVAKKKDLGLAYTHCAASQGYAPASYELGAYYKIVEHNFPKALVYYQVSVSQGGKSAAFFLSRVFGSETPPASAMWYAPDEKLREAYYSIYKKLEADPLEHHHHHH,not soluble
6,MGSDKIHHHHHHMTSTPHSPSEMFASIPGIFGFYPEESIVVLTLMHTKESCYQLGPVMRLDLKDLRYLSDIGDTLSAIEPDLVFGLIISGQKPEAIEDLRGLIEFVADCEIVPFDACWYTSAIESGGKYDAIWLNEAMTEAALEYQSWRKGRIPLIANTGITGEMIHAGHLPELSRKDIEKHYAQAEESEQWDEYLITERYAELFDDPSTSFRSAQECIDAFSQAVELMRTEKLITDAALTVAAFLKNKMSRDIIIECCVHNANTVKEALCYVSRHTKGFVRANALALYALCIVDSPWGNHITCVLQAAHNTLPFHHLTALVAEAYYRGLSGSIVDLVVSGSQEAQKHFGEATNVKSAV,not soluble
7,MIEERFDAIVVGAGMAGNAAALTMAKRGLKVLQIERGEYPGSKNVQGAILYADMLEKLVPDFREDAPLERHLVEQRFWMMDGKSHTGLHHRSEDFNEEKPNRYTIIRAQFDKWLSSKAQEAGAIVLCETTVKELVQDAYGKVIGVITDREGGQVHADVVVLAEGVNGLLGTKAELRERPTPENVALAVKEMHFLPRETIEARFNLKGDEGVVIEAAGTISAGMTGMGFIYTNKESISIGIGCLVSDFQKTGETPYGLLERFKKHPSVAPLIEGSEVKEYAGHLIPEGGYNAIPQLYGDGWVVVGDAAQLNNAMHREGSNLAMTSGRIAAEAIFQVKSRKDPMTKENLALYKKMLDDSFVIKDLKKYKDMPDLLHIRSQNFFLTYPQLVNKALQNFVRVDGTPKIEKEKTTIKSFVSARSWGGLFGDAFRFARAWR,not soluble
8,GPQMLSANERLKNNFNILYNQIRQYPAYYFKVASNVPTYSDICQSFSVMYQGFQIVNHSGDVFIHACRENPQSKGDFVGDKFHISIAREQVPLAFQILSGLLFSEDSPIDKWKITDMNRVSQQSRVGIGAQFTLYVKSDQECSQYSALLLHKIRQFIMCLESNLLRSKIAPGEYPASDVRPEDWKYVSYRNELRSDRDGSERQEQMLREEPFYRLMIE,soluble
9,MEEKKTESATKNVKKVNLLDHIAIKHLLDESVSDIVTSRGYKEDGSFTSTGLVVSSKLPRFSDQYTLTIDSADPQSISAGKSVQFTKSVTQWLTKDGVLVEGLFWKDVEALVKEYTEAGEPKKKR,not soluble
10,MGSDKIHHHHHHMATLSKKIDFAIIMSVKNANPNGDPLNGNRPRTDYEGLGEITDVCLKRKIRDRLVEQYVSLKNEEEKKGQAIFVQSDDRKIDGETSLRNRAESEKNGLGKKAFGANAKKDETAKSACEKWFDVRAFGQVFAFGKGNDADGVSIPVRGPVTIQSAFSRDLVSISSTQITKSVSGEGDGKKRSSDTMGMKHRVDRGIYVTYGTMNPQLAERTGFSDKDAAVIKAILPKIFENDASSARPEGSMEVVKVLWWQHNSKSGDYSSAKVHRSLKVNPDGSYIIEPLNGLVPEEIAGF,not soluble
11,MQQKDAVPDTAKKLKAPLTGLKTEQKVTERRPVAVVVNNHPKARPQSGLSKADIVIEALAEGQITRFLAIFQSQMPETVGPVRSAREYFVTLSNGFDSIFVHHGWSPGAKKQLESGAADYMNGLDFDGSLFWRADFSKPPHNSYTSYDYIKKAAEQKGYKLKQETNPLLFQTSDAKPANESYNVRVDYGTNNVTNLVEYNYDKKAEFYTRSSDGVITTDRETGKPVAMQNIFIVEASHHIIDQDGRRDIDLESGGKGLLFQHGNVIETDWKQVNGRIVPVKDGKWLPFVPGKTWINIVPDLDAASISKGEGVLEHHHHHH,soluble
12,DTIRWATEQAIANGTGEREYIKKLEPMLKELGWWGKAKDENGNEVQLGSPRRLRTILRTNKITAYHAARYAQQMENVDEQPYWRYVAVNDSRTRASHLALHGKIYRADDPIWQTMYPPNDWGCRCRVE,not soluble
13,MSLNRIILLDRDGVINTDSINYIKNVDELIIIPDSIIAIARLSAAGYKIGVATNQSGVSRGLYSEDDLSAIHCKLREVLAEAGGQIDALEYCIHLPEDNCFCRKPQPGMLKALAEKLNCSLDSVPFVGDRVSDIQAALAVGAQPIIVLSNMTDMSELAQYPKVPIYNSLLQYVNQLLLEGHHHHHH,soluble
14,MKILTQSLPNSSAAYLQGYLRENTDSSVTYPTVIIVPGGSYTHIPERQAEDLALAWVARGYQAFFLRYSFISEKTPLLPNPVIELAQSVAAIHAHATTWHVDLRRLAVAGFSVGGHITALFNDWWSEADFNQQAHTTPEQLKVQAVILGYPVISPDLGFPTDAATLATWSTTPKKIAADQHVTAANAPTFIWVTANDPLVPVQNALAYAQASLTHGVDTELHVFHNGPHGLALANSVTAWKPGTDLPHVAHWLDLATEWLQDLKLEHHHHHH,soluble
15,IFIGNLDPEIDEKLLYDTFSAFGVILQTPKIMRDPDTGNSKGYAFINFASFDASDAAIEAMNGQYLCNRPITVSYAFKKDSKG,soluble
16,MKTPAILLLLFLFMMSLAQSDEEQSGKEPPEKDDVLVILAEDNSTLLNNNQTMYDPSSEEKESDKPKFNLLETYLPLFIFVLDLPTEDRETLKAYVKDKTYEKLKYVIDSKVKMNRNEKNVLGRINESLVQSIDNLEHFDEITVDVVNGYHNASVYNAIRSVWLKQLRPFLPLIDQMAIQQKSSETEKMSIWARLWENLSVWMYGKKKLNECYAMEPKCVRHALELLNFEQRIDLDLAAYENKFDSVDGIIRERLGENRKSSELDEWLHRNRPPKALQAILDERSDIEEEALQRLRDNGVLSSLKHYYKAVIESRSHEEQEDIRHFFDIMNDTFARCFDPLRGQYHDF,not soluble
17,MEKSYMKHELWGDGDFQEDDVWDVLDGYQSPFMISSNHTTKPSFSTQTLLPSEPRMIPERQRTEGMAPMRQQSVPVNVPDWSMVQRKKTKKVVDDENVSPEEYFLRRSRSSSSSSVMEGVGRKLKGRDLSKVRNAILKQTGFLE,soluble
18,MAHHHHHHMNDCISTDKVDLDKKQIKKFLKQINISQLTKMIQFIDNKLLSDWDFNCLTYFDESEYPFFDINLSLICTIDHNIPINIIINFLCFVEKQYNNVPYHNTIHATMVTQKFFCLAKKLGIYDDLEYKIKLVMFISGICHDIGHPGYNNLFFVNSLHPLSIIYNDISVLENYHASITFKILQLNQCNILKNFSEKDFRMMRSYIIELILSTDMKHHFEIISKFRIRRENEDFDYIKNSDDLLILTKMIIKSADISHGSVSWSEHYCWCQRVLSEFYTQGDEELKNKMPLSPLCDRTKHNEVCKSQITFLKFVVMPLFEELSHIDNNKFIKSFCLKRLNSNCIMWDTLMKEEKTIEVYDPAAVKLKDKKKKKVDKKKKSYIDLTLFFIKNV,not soluble
19,MNVDLHCHSTASDGALSPTALVARAHEYGVRVLSLTDHDTLEGLEEARTAAHSLGMQLVNGVELSCTWGGATIHVLGYGFDTQAPALTEAIARLHEGRWLRAEEISRKLAIKGMPGALEGARAIQQALGDSGNAPARPHFADFMVRAGFVKDRAEAFRKWLGAGKLGDVKQHWPTLEDTVATLRASGAWVSLAHPSHYDFTRSKRRKLVGDFVQAGGHAIEVVNGMQPADQVGTLAILAREFGLLVSAGSDFHGPGNWGEIGTYRPVPEDLPPLWCRFKHEQPTAAV,not soluble
20,MPALKKIEQSLDHLFQIEKYGKDSAFSRFIPAVYDPIKFPWQQFFEANFVDLFNGLMMHGSENVNKVFLAVFPTDDVLETFISQSTPGDLLFMHHPLVMECGDPLGRSGRGFLPIPEKYLQGIKEKQLSIYTCHVPMDFHQTHGTSISIAKALNATVVDDFAYGGPEQEPVGLICEIDETSTEALQKHLKQLFQIPYTDFEGKRHDSIKKIAIIAGCGDVVSLMKEAEEKGAEAYITGEIHCHIDNDYGRHKYSLIMDYVKETNMSLIGVSHSASEYLVKETLMYDWFKENFDVDVILLPQEKWWLMAGDPLEHHHHHH,not soluble
21,MNNHFGKGLMAGLHAPYAYSAHHAVNFCSEYKRGFVLGFTHRMFEKTGDRQLSAWEAGILTRRYGLDKEMVMDFFKENHSGMAVRFFMAGYRLEG,not soluble
22,MDITEKLRLITRNAEEVVTEEELRQLIETKEKPRAYVGYEPSGEIHLGHMMTVQKLMDLQEAGFEIIVLLADIHAYLNEKGTFEEIAEVADYNKKVFIALGLDESRAKFVLGSEYQLSRDYVLDVLKMARITTLNRARRSMDEVSRRKEDPMVSQMIYPLMQALDIAHLGVDLAVGGIDQRKIHMLARENLPRLGYSSPVCLHTPILVGLDGQKMSSSKGNYISVRDPPEEVERKIRKAYCPAGVVEENPILDIAKYHILPRFGKIVVERDAKFGGDVEYASFEELAEDFKSGQLHPLDLKIAVAKYLNMLLEDARKRLGVSV,soluble
